In US20210363254A1 (Novartis, published 2021):
Where a chain is given by its changes, count along the chain named.

Tests used:
[1] = biological target: T1, Programmed Death 1 (PD-1) (UniProt Q15116 25-288, limits assumed); test: rank of the clone among the humanized BAP049 clones by FACS data
[2] = biological target: T1, Programmed Death 1 (PD-1); test: rank of the clone by competition binding against labelled murine mAb BAP049, first experiment (legends paragraph 52)
[3] = biological target: T1, Programmed Death 1 (PD-1); test: rank of the clone by competition binding against labelled murine mAb BAP049, second experiment (legends paragraph 52); footnote: empty boxes means worse than 4
[4] = biological target: T1, Programmed Death 1 (PD-1); test: FACS, blocking of ligand-Ig binding to PD-1, MFI of bound ligand against mAb concentration; legend paragraph 53 names 'PD-LI-Ig and PD-L2-Ig' for FIG. 8A; cells not named

T1 sequence (Q15116 25-288 limits assumed): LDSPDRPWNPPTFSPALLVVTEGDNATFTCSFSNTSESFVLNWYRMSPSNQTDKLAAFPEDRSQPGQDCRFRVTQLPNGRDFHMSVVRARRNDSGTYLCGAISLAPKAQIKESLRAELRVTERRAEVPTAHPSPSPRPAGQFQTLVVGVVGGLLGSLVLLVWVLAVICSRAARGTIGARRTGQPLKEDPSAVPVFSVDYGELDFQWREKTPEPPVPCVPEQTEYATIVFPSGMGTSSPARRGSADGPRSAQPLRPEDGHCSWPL

B1: BAP049-hum16 (antibody, human IgG4 S228P, kappa, V domains shown)
VH: EVQLVQSGAEVKKPGESLRISCKGSGYTFTTYWMHWVRQAPGQGLEWMGNIYPGTGGSNFDEKFKNRFTISRDNSKNTLYLQMNSLRAEDTAVYYCTRWTTGTGAYWGQGTTVTVSS
VL: EIVLTQSPDFQSVTPKEKVTITCKSSQSLLDSGNQKNFLTWYQQKPGQAPRLLIYWASTRESGVPSRFSGSGSGTDFTFTISSLEAEDAATYYCQNDYSYPYTFGQGTKVEIKR
notes: also called clone 16
For B1, the “Ranking, FACS data” value [1] was 15, the “Competition Binding, 1st exp. (rank)” value [2] was 16 and the “Competition Binding, 2nd exp. (rank)” value [3] was 15.

B2: BAP049-hum13 (antibody, human IgG4 S228P, kappa)
heavy chain: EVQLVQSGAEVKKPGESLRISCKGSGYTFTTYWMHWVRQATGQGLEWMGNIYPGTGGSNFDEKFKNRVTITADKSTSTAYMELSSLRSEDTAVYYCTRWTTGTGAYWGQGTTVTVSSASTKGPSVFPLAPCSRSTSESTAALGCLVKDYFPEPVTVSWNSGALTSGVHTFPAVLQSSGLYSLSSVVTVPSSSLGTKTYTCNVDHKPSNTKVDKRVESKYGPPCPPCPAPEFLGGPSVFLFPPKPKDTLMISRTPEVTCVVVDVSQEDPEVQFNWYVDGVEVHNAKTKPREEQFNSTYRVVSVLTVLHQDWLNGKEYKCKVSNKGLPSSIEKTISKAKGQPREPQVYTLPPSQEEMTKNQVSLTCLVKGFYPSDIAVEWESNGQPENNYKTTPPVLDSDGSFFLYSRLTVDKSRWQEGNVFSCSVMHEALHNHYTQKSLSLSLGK
light chain: DVVMTQSPLSLPVTLGQPASISCKSSQSLLDSGNQKNFLTWYQQKPGKAPKLLIYWASTRESGVPSRFSGSGSGTDFTFTISSLEAEDAATYYCQNDYSYPYTFGQGTKVEIKRTVAAPSVFIFPPSDEQLKSGTASVVCLLNNFYPREAKVQWKVDNALQSGNSQESVTEQDSKDSTYSLSSTLTLSKADYEKHKVYACEVTHQGLSSPVTKSFNRGEC
notes: also called clone 13
B2 was tested, and the “Ranking, FACS data” value [1] was 6, the “Competition Binding, 1st exp. (rank)” value [2] was 1 and the “Competition Binding, 2nd exp. (rank)” value [3] was 1.

B3: BAP049-hum02 (antibody, human IgG4 S228P, kappa, V domains shown)
VH: EVQLVQSGAEVKKPGESLRISCKGSGYTFTTYWMHWVRQATGQGLEWMGNIYPGTGGSNFDEKFKNRVTITADKSTSTAYMELSSLRSEDTAVYYCTRWTTGTGAYWGQGTTVTVSS
VL: DIQMTQSPSSLSASVGDRVTITCKSSQSLLDSGNQKNFLTWYQQKPGQAPRLLIYWASTRESGIPPRFSGSGYGTDFTLTINNIESEDAAYYFCQNDYSYPYTFGQGTKVEIKR
notes: also called clone 2
With B3 the “Ranking, FACS data” value [1] was 6, the “Competition Binding, 1st exp. (rank)” value [2] was 3 and the “Competition Binding, 2nd exp. (rank)” value [3] was 2.

B4: BAP049-hum12 (antibody, human IgG4 S228P, kappa, V domains shown)
VH: B3 VH
VL: DIQMTQSPSSLSASVGDRVTITCKSSQSLLDSGNQKNFLTWYLQKPGQSPQLLIYWASTRESGVPSRFSGSGSGTDFTFTISSLEAEDAATYYCQNDYSYPYTFGQGTKVEIKR
notes: also called clone 12
In the case of B4, the “Ranking, FACS data” value [1] is reported as 3, the “Competition Binding, 1st exp. (rank)” value [2] is reported as 8 and the “Competition Binding, 2nd exp. (rank)” value [3] is reported as 16.

B5: BAP049-hum03 (antibody, human IgG4 S228P, kappa, V domains shown)
VH: B1 VH with V37I, A40S, G42S, Q43R, M48L
VL: B3 VL
notes: also called clone 3
In the case of B5, the “Ranking, FACS data” value [1] is reported as 7, the “Competition Binding, 1st exp. (rank)” value [2] is reported as 8 and the “Competition Binding, 2nd exp. (rank)” value [3] is reported as 14.

B6: Chi mAb (Tyr) (antibody, human IgG4 S228P, kappa, V domains shown)
VH: QVQLQQSGSELVRPGASVKLSCKASGYTFTTYWMHWVRQRPGQGLEWIGNIYPGTGGSNFDEKFKNRTSLTVDTSSTTAYMHLASLTSEDSAVYYCTRWTTGTGAYWGQGTTVTVSS
VL: DIVMTQSPSSLTVTAGEKVTMSCKSSQSLLDSGNQKNFLTWYQQKPGQPPKLLIFWASTRESGVPDRFTGSGSVTDFTLTISSVQAEDLAVYYCQNDYSYPYTFGQGTKVEIKR
notes: also called BAP049-chi-Y; Chi (Tyr)
With B6 the “IC50 (read off the curve)” value [4] was roughly 0.9 µg/mL.

B7: Mu mAb (antibody, V domains shown)
VH: B6 VH with T112L, S117A
VL: DIVMTQSPSSLTVTAGEKVTMSCKSSQSLLDSGNQKNFLTWYQQKPGQPPKLLIFWASTRESGVPDRFTGSGSVTDFTLTISSVQAEDLAVYYCQNDYSYPCTFGGGTKLEIK
notes: also called murine mAb BAP049; murine anti-PD-1 mAb BAP049
In the case of B7, the “IC50 (read off the curve)” value [4] is reported as roughly 0.7 µg/mL.

B8: BAP049-hum10 (antibody, human IgG4 S228P, kappa)
heavy: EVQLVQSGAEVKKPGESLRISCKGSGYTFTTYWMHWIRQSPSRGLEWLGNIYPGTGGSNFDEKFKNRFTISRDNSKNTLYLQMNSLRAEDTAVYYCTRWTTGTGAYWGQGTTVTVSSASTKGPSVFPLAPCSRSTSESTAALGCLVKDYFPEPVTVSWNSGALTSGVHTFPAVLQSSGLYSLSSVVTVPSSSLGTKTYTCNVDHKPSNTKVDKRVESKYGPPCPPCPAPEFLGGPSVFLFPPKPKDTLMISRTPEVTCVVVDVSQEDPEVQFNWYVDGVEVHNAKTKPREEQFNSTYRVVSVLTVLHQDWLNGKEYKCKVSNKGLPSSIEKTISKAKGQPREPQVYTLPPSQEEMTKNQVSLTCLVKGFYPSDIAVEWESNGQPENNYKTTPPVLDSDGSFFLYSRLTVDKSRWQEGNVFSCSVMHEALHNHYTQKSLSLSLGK
light: EIVLTQSPATLSLSPGERATLSCKSSQSLLDSGNQKNFLTWYQQKPGQAPRLLIYWASTRESGVPSRFSGSGSGTDFTFTISSLEAEDAATYYCQNDYSYPYTFGQGTKVEIKRTVAAPSVFIFPPSDEQLKSGTASVVCLLNNFYPREAKVQWKVDNALQSGNSQESVTEQDSKDSTYSLSSTLTLSKADYEKHKVYACEVTHQGLSSPVTKSFNRGEC
notes: also called humanized BAP049 clone hum10
B8 was tested, and the “Ranking, FACS data” value [1] was 7, the “Competition Binding, 1st exp. (rank)” value [2] was 6 and the “Competition Binding, 2nd exp. (rank)” value [3] was greater than 4. The “IC50 (read off the curve)” value [4] was roughly 1 µg/mL.

B9: BAP049-hum15 (antibody, human IgG4 S228P, kappa)
heavy chain: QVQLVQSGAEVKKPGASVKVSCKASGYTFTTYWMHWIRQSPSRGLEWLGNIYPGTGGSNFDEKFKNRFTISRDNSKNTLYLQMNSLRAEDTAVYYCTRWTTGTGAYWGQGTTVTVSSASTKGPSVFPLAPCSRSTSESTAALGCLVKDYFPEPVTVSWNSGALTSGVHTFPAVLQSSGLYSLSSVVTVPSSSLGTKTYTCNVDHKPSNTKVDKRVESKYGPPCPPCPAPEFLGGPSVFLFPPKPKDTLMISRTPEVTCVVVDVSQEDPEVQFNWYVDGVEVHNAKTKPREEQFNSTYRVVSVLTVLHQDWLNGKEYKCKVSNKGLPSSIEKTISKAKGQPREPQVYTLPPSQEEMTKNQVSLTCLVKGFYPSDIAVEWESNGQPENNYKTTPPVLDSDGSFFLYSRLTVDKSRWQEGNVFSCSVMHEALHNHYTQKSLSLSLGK
light chain: B8 light with A9D, T10F, L11Q, L13V, S14T, G16K, R18K, A19V, L21I, S22T
notes: also called clone 15
B9 was tested, and the “Ranking, FACS data” value [1] was 6, the “Competition Binding, 1st exp. (rank)” value [2] was 7 and the “Competition Binding, 2nd exp. (rank)” value [3] was 15.

B10: BAP049-hum11 (antibody, human IgG4 S228P, kappa)
heavy: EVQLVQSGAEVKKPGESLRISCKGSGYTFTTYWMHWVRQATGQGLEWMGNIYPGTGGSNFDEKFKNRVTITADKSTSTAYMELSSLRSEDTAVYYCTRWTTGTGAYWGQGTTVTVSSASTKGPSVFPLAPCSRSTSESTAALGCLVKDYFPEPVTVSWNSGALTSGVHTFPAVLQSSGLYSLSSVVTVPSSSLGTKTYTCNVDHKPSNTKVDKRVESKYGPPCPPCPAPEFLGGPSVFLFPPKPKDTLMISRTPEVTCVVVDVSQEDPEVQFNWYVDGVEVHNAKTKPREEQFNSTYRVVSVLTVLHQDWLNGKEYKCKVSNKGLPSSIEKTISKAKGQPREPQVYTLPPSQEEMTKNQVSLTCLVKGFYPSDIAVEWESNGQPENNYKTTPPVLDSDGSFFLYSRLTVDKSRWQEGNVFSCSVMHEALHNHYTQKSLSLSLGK
light: B8 light
notes: also called humanized BAP049 clone hum11
For B10, the “Ranking, FACS data” value [1] was 6, the “Competition Binding, 1st exp. (rank)” value [2] was 4 and the “Competition Binding, 2nd exp. (rank)” value [3] was greater than 4.

B11: BAP049-hum04 (antibody, human IgG4 S228P, kappa, V domains shown)
VH: B1 VH with V37I, A40S, G42S, Q43R, M48L
VL: EIVLTQSPATLSLSPGERATLSCKSSQSLLDSGNQKNFLTWYQQKPGKAPKLLIYWASTRESGVPSRFSGSGSGTDFTFTISSLQPEDIATYYCQNDYSYPYTFGQGTKVEIKR
notes: also called clone 4
For B11, the “Ranking, FACS data” value [1] was 14, the “Competition Binding, 1st exp. (rank)” value [2] was 15 and the “Competition Binding, 2nd exp. (rank)” value [3] was 15.

B12: BAP049-hum05 (antibody, human IgG4 S228P, kappa, V domains shown)
VH: B3 VH
VL: B11 VL
notes: also called humanized BAP049 clone hum05
In the case of B12, the “Ranking, FACS data” value [1] is reported as 5, the “Competition Binding, 1st exp. (rank)” value [2] is reported as 5 and the “Competition Binding, 2nd exp. (rank)” value [3] is reported as greater than 4. The “IC50 (read off the curve)” value [4] was roughly 1 µg/mL.

B13: BAP049-hum06 (antibody, human IgG4 S228P, kappa)
heavy chain: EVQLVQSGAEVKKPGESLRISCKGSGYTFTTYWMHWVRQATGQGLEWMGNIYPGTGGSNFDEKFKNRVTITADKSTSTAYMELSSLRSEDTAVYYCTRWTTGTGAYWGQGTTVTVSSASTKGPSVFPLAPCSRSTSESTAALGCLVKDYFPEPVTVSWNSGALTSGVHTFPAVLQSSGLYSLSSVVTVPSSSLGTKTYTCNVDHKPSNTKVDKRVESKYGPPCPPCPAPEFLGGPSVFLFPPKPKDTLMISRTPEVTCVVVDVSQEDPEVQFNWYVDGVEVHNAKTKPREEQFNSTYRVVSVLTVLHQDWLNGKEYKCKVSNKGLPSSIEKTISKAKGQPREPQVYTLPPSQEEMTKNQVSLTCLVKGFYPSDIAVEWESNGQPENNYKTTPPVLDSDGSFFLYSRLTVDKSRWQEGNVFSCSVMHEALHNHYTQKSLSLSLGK
light chain: B2 light chain with V2I, S7T, L15P, Q17E, K48Q, K51R
notes: also called clone 6
In the case of B13, the “Ranking, FACS data” value [1] is reported as 1, the “Competition Binding, 1st exp. (rank)” value [2] is reported as 7 and the “Competition Binding, 2nd exp. (rank)” value [3] is reported as 3.

B14: BAP049-hum08 (antibody, human IgG4 S228P, kappa)
heavy: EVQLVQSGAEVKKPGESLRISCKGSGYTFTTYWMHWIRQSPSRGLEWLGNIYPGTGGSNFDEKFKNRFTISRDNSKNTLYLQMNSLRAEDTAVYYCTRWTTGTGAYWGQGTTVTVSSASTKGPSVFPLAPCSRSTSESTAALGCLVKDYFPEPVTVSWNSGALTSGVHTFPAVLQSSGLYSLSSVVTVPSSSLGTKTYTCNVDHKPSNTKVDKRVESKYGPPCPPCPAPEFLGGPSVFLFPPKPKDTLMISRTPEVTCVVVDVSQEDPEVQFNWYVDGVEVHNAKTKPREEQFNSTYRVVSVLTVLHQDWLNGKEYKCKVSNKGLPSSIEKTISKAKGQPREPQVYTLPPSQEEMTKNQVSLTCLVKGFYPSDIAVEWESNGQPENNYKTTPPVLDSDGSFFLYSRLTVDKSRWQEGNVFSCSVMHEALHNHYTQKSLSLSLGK
light: B8 light with A9D, T10F, L11Q, L13V, S14T, G16K, R18K, A19V, L21I, S22T
notes: also called humanized BAP049 clone hum08
With B14 the “Ranking, FACS data” value [1] was 7, the “Competition Binding, 1st exp. (rank)” value [2] was 7 and the “Competition Binding, 2nd exp. (rank)” value [3] was 4.

B15: BAP049-hum14 (antibody, human IgG4 S228P, kappa)
heavy chain: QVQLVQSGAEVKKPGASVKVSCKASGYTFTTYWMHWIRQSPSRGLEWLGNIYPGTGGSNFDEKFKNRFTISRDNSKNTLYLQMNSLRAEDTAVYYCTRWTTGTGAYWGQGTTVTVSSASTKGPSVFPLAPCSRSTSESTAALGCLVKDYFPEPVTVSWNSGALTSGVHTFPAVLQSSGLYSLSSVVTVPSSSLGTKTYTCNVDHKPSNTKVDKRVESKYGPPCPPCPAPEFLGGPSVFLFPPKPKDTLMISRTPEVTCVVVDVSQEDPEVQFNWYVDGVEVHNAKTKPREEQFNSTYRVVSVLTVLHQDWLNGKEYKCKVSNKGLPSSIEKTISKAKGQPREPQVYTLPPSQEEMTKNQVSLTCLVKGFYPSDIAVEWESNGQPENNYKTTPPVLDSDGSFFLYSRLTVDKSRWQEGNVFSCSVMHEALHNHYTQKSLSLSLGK
light chain: B8 light
notes: also called clone 14
With B15 the “Ranking, FACS data” value [1] was 16, the “Competition Binding, 1st exp. (rank)” value [2] was 7 and the “Competition Binding, 2nd exp. (rank)” value [3] was 15.

B16: BAP049-hum09 (antibody, human IgG4 S228P, kappa)
heavy: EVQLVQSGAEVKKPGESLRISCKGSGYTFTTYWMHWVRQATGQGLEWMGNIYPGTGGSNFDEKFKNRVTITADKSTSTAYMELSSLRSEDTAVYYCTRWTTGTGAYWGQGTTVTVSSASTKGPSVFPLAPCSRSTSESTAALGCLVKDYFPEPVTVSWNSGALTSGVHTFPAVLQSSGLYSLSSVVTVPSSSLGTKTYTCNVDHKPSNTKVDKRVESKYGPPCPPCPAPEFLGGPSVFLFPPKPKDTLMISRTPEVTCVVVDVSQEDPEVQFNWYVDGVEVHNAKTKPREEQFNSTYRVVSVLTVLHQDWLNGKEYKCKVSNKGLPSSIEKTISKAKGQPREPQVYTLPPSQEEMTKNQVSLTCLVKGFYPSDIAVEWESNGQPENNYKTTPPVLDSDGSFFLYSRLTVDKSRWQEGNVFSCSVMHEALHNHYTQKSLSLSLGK
light: B8 light with A9D, T10F, L11Q, L13V, S14T, G16K, R18K, A19V, L21I, S22T
notes: also called humanized BAP049 clone hum09
In the case of B16, the “Ranking, FACS data” value [1] is reported as 7, the “Competition Binding, 1st exp. (rank)” value [2] is reported as 2 and the “Competition Binding, 2nd exp. (rank)” value [3] is reported as 4.

B17: BAP049-hum01 (antibody, human IgG4 S228P, kappa, V domains shown)
VH: B3 VH
VL: B11 VL with K48Q, K51R, D76E, F79L, E87D, I89F
notes: Humanized anti-PD-1 mAb; also called humanized BAP049 clone hum01
For B17, the “Ranking, FACS data” value [1] was 2, the “Competition Binding, 1st exp. (rank)” value [2] was 7 and the “Competition Binding, 2nd exp. (rank)” value [3] was 2. For the same binder, the “IC50 (read off the curve)” value [4] was roughly 1 µg/mL.

B18: BAP049-hum07 (antibody, human IgG4 S228P, kappa)
heavy chain: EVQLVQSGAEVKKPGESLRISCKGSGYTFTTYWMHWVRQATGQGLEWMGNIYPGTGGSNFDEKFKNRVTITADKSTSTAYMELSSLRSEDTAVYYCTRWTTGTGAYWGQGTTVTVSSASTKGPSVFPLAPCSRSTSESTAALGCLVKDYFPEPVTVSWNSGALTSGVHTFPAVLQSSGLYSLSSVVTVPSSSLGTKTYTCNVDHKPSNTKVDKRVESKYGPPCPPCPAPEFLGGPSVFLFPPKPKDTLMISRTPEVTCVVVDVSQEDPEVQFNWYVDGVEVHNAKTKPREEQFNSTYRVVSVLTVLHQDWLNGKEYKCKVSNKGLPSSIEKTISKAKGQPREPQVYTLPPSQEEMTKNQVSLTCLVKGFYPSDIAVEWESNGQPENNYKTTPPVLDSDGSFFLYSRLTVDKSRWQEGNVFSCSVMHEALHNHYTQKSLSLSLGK
light chain: B8 light with Q48K, R51K
notes: also called clone 7
In the case of B18, the “Ranking, FACS data” value [1] is reported as 4, the “Competition Binding, 1st exp. (rank)” value [2] is reported as 7 and the “Competition Binding, 2nd exp. (rank)” value [3] is reported as greater than 4.
